According to PMC12654924:

What was measured:
[1] = target: hemagglutinin of the spiny eel influenza-like virus, ectodomain (spiny eel influenza-like virus); assay: cryo-EM structure
[2] = target: hemagglutinin of the Asiatic toad influenza-like virus, ectodomain (Asiatic toad influenza-like virus); assay: cryo-EM structure

Substance | stoichiometry N [1] | stoichiometry N [2]
hemagglutinin of the spiny eel influenza-like virus, ectodomain (domain or fragment) | 3 | –
hemagglutinin of the Asiatic toad influenza-like virus, ectodomain (domain or fragment) | – | 3
